# Source: patent US20100216715A1 (Novo Nordisk, published 2010)
# Target: T1, human beta-Klotho (human, UniProt Q86Z14 1-1044)
# T1 sequence (looked up): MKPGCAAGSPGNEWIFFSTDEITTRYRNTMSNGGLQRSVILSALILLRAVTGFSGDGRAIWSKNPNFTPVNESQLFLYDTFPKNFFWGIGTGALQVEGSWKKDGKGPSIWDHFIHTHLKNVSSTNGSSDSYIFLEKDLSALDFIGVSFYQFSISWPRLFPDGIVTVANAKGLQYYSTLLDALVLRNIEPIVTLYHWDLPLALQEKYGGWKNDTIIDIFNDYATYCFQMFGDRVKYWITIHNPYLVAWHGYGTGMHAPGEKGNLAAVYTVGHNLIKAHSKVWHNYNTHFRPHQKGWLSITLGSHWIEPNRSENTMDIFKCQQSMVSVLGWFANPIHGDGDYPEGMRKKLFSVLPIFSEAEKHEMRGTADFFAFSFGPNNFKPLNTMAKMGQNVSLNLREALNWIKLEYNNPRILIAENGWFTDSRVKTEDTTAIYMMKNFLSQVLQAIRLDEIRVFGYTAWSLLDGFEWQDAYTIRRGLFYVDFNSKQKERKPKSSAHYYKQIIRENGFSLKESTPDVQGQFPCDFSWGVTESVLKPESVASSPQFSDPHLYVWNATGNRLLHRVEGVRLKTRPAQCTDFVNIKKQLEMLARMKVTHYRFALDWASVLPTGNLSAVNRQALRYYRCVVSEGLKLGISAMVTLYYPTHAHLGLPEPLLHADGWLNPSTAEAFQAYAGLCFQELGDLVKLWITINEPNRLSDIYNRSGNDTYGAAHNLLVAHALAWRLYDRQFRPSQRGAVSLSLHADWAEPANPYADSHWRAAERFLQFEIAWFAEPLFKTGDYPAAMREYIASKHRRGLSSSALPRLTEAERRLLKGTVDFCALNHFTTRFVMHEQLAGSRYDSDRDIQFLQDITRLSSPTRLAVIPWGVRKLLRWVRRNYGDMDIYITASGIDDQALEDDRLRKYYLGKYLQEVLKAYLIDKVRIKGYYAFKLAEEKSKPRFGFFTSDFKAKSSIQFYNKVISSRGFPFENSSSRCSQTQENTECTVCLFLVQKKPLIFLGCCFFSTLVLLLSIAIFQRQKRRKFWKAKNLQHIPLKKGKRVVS
# Experiment: cell-based or functional assay
row,pERK-HEK293-Beta-klotho without HSA [EC50 (nM)] Median Value [nM],Binder
1,2.1,Gly-FGF21 (ligand) GHPIPDSSPLLQFGGQVRQRYLYTDDAQQTEAHLEIREDGTVGGAADQSPESLLQLKALKPGVIQILGVKTSRFLCQRPDGALYGSLHFDPEACSFRELLLEDGYNVYQSEAHGLPLHLPGNKSPHRDPAPRGPARFLPLPGLPPALPEPPGILAPQPPDVGSSDPLSMVGPSQGRSPSYAS
2,12,"(K56R, K59R, K69R, K122R) FGF21 (ligand) HPIPDSSPLLQFGGQVRQRYLYTDDAQQTEAHLEIREDGTVGGAADQSPESLLQLRALRPGVIQILGVRTSRFLCQRPDGALYGSLHFDPEACSFRELLLEDGYNVYQSEAHGLPLHLPGNRSPHRDPAPRGPARFLPLPGLPPALPEPPGILAPQPPDVGSSDPLSMVGPSQGRSPSYAS"

# Second part, the binder before the results:
row,Binder,pERK-HEK293-Beta-klotho without HSA [EC50 (nM)] Median Value [nM]
1,"(Q15F, K56R, K59R, K69R, D102T, N121Q, K122R, Y179F, A180E, S181R) Gly-FGF21 (ligand) GHPIPDSSPLLQFGGFVRQRYLYTDDAQQTEAHLEIREDGTVGGAADQSPESLLQLRALRPGVIQILGVRTSRFLCQRPDGALYGSLHFDPEACSFRELLLETGYNVYQSEAHGLPLHLPGQRSPHRDPAPRGPARFLPLPGLPPALPEPPGILAPQPPDVGSSDPLSMVGPSQGRSPSFER",75
2,Gly-FGF21-M168L (ligand) GHPIPDSSPLLQFGGQVRQRYLYTDDAQQTEAHLEIREDGTVGGAADQSPESLLQLKALKPGVIQILGVKTSRFLCQRPDGALYGSLHFDPEACSFRELLLEDGYNVYQSEAHGLPLHLPGNKSPHRDPAPRGPARFLPLPGLPPALPEPPGILAPQPPDVGSSDPLSLVGPSQGRSPSYAS,1.8
